Results taken from US20070054328A1 (published 2007).

B1: endogenous TAPP1 of 293 cells (other, human, UniProt Q9HB21 1-404, looked up)
chain: MPYVDRQNRICGFLDIEENENSGKFLRRYFILDTREDSFVWYMDNPQNLPSGSSRVGAIKLTYISKVSDATKLRPKAEFCFVMNAGMRKYFLQANDQQDLVEWVNVLNKAIKITVPKQSDSQPNSDNLSRHGECGKKQVSYRTDIVGGVPIITPTQKEEVNECGESIDRNNLKRSQSHLPYFTPKPPQDSAVIKAGYCVKQGAVMKNWKRRYFQLDENTIGYFKSELEKEPLRVIPLKEVHKVQECKQSDIMMRDNLFEIVTTSRTFYVQADSPEEMHSWIKAVSGAIVAQRGPGRSASSEHPPGPSESKHAFRPTNAATATSHSTASRSNSLVSTFTMEKRGFYESLAKVKPGNFKVQTVSPREPASKVTEQALLRPQSKNGPQEKDCDLVDLDDASLPVSDV
B2: GST-DAPP1 (other, UniProt Q9UN19 1-280, looked up)
chain: MGRAELLEGKMSTQDPSDLWSRSDGEAELLQDLGWYHGNLTRHAAEALLLSNGCDGSYLLRDSNETTGLYSLSVRAKDSVKHFHVEYTGYSFKFGFNEFSSLKDFVKHFANQPLIGSETGTLMVLKHPYPRKVEEPSIYESVRVHTAMQTGRTEDDLVPTAPSLGTKEGYLTKQGGLVKTWKTRWFTLHRNELKYFKDQMSPEPIRILDLTECSAVQFDYSQERVNCFCLVFPFRTFYLCAKTGVEADEWIKILRWKLSQIRKQLNQGEGTIRSRSFIFK
notes: Control GST fusion expressed in 293 cells; also called dual adaptor for phosphotyrosine and 3-phosphoinositides; not shown: N-terminal glutathione S-transferase (GST) tag
B3: GST-FAPP1 (other, UniProt Q9HB20 1-300, looked up)
chain: MEGVLYKWTNYLTGWQPRWFVLDNGILSYYDSQDDVCKGSKGSIKMAVCEIKVHSADNTRMELIIPGEQHFYMKAVNAAERQRWLVALGSSKACLTDTRTKKEKEISETSESLKTKMSELRLYCDLLMQQVHTIQEFVHHDENHSSPSAENMNEASSLLSATCNTFITTLEECVKIANAKFKPEMFQLHHPDPLVSPVSPSPVQMMKRSVSHPGSCSSERSSHSIKEPVSTLHRLSQRRRRTYSDTDSCSDIPLEDPDRPVHCSKNTLNGDLASATIPEESRLMAKKQSESEDTLPSFSS
notes: Control GST fusion expressed in 293 cells; not shown: N-terminal glutathione S-transferase (GST) tag

Tests used:
[1] = target: T1, endogenous PTPL1 (Protein Tyrosine Phosphatase Like-Protein-1) of 293 cells (human, UniProt Q12923 1-2485, limits assumed); experiment: cell-based or functional assay
T1 sequence (Q12923 whole entry): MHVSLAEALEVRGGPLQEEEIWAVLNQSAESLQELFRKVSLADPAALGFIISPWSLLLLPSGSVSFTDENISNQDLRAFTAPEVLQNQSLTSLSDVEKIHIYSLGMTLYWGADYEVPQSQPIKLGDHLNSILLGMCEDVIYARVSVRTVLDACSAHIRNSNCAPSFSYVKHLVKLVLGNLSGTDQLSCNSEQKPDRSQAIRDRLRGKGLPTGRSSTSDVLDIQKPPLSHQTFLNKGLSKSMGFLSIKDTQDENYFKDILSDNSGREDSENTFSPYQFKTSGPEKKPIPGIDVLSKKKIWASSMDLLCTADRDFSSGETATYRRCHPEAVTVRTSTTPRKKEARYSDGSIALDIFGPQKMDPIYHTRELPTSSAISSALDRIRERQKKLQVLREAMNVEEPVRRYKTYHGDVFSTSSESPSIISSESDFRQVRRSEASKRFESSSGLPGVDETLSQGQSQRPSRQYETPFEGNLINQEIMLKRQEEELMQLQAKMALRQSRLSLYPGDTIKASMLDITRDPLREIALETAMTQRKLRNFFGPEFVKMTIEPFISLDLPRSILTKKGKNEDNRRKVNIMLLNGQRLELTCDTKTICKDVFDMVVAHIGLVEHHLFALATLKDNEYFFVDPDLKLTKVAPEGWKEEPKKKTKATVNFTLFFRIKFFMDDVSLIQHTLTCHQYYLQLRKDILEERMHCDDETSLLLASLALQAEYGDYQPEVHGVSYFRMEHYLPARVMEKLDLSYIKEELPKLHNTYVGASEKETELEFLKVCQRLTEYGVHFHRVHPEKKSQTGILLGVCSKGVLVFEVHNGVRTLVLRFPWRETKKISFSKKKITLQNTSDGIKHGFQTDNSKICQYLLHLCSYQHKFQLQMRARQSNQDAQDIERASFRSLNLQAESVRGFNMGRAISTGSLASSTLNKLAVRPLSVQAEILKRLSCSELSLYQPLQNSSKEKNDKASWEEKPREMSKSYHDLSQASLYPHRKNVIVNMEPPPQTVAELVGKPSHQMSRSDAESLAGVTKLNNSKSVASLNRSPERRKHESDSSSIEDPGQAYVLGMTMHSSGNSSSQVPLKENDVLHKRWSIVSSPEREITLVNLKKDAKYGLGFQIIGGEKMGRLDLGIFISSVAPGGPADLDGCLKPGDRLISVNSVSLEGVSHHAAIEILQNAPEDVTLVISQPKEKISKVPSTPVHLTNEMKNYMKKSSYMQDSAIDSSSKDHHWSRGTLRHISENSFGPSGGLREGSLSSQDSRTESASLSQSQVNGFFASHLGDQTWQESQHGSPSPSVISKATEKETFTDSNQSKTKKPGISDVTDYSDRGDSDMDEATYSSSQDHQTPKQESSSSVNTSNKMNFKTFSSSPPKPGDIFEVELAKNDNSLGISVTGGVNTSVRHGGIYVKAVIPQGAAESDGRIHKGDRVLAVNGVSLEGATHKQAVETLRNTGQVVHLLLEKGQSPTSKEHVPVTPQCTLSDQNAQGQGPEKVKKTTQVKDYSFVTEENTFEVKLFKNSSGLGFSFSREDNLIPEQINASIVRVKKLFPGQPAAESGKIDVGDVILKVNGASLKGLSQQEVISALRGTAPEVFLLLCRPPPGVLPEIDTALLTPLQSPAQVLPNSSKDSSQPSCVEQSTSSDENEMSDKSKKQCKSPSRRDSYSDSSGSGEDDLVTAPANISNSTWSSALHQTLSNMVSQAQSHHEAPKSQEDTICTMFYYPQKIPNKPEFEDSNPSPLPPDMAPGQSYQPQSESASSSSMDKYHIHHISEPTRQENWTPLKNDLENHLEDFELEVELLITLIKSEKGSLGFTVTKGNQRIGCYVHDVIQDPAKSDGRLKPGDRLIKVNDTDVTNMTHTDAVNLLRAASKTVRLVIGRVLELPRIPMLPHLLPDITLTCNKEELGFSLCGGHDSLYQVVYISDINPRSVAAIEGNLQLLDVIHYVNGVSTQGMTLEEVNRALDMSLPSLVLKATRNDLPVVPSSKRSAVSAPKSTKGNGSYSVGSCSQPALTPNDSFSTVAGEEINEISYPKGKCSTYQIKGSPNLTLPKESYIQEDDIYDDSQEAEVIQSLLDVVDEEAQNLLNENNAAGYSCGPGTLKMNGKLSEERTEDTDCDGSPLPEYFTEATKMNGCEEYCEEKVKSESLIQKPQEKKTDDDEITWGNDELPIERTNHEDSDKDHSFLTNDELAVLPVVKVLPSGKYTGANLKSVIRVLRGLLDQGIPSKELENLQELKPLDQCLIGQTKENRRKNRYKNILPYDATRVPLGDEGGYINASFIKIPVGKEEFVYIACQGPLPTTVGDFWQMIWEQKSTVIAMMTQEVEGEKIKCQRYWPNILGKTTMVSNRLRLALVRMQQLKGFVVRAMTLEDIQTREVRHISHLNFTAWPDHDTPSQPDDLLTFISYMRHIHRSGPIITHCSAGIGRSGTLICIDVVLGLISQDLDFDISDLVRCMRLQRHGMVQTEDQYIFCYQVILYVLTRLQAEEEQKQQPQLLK

[2] = target: T1, endogenous PTPL1 (Protein Tyrosine …); experiment: GST pull-down from 293 cells; pNPP phosphatase assay and anti-PTPL1 immunoblot
Method: Rates or amounts of para-nitrophenol production were calculated using a standard curve generated from known amounts of para-nitrophenol. For the insulin receptor peptide assay a 50 μl reaction was set up containing 20 mM Tris pH7.4, 150 mM NaCl, 1 mM DTT, 20 μM of the tyrosine-phosphorylated peptide and 100 ng of GST-PTPL1. After 10 min at room temperature, the reactions were terminated by the addition of 0.1 ml of BIOMOL green reagent and after an additional 20 min the amount of phosphate liberated was quantitated by absorbance at 620 nm and measured against inorganic phosphate standards. In all assays we ensured that the rate of para-nitrophenol formation or the dephosphorylation of the insulin receptor peptide, was linear with time.
Immunoblotting. For blots of total cell lysates or tissues 20 μg of protein was used. For the purified GST fusion proteins to detect association of endogenous PTPL1, 10 μg of fusion protein was employed for the PTPL1 blots and 0.1 μg for the GST blots. Samples were subjected to SDS/PAGE and transferred to nitrocellulose. […]

Binder | pNPP phosphatase activity immunoprecipitated with the anti-PTPL1 antibody compared with the TAPP1 antibody [1] [fold] | binding result [2]
B1 | ~6 | 
B2 |  | no binding
B3 |  | no binding
